Test results published in patent publication US20150203575A1 (Genentech, published 2015).

B1: mPILRα-Fc (Fc fusion)
chain: not shown
notes: also called mouse PILRα-Fc; WT mPILRα-Fc; not shown: Fc of mouse IgG2a (PILRα-mIgG2a, called PILRα-Fc)
B2: mPILRαR133A-Fc (Fc fusion)
chain: not shown
notes: Arg mutant of mPILRα-Fc; also called mPILRα133A-Fc; variant mPILRα (R133A); not shown: Fc of mouse IgG2a (PILRα-mIgG2a, called PILRα-Fc)

Assays:
[1] = target: T1, human COLEC12 expressed on cells (human, UniProt Q5KU26 1-742); assay: flow cytometry, transfected 293T cells, 2 µg/ml; 293T-Neo: 0
T1 construct: also called hCOLEC12; C-terminal his tagged hCOLEC12

[2] = target: T2, human NPDC1 expressed on cells (human, UniProt Q9NQX5 35-325); assay: as above
T2 construct: also called hNPDC1; hNPCD1
T2 sequence: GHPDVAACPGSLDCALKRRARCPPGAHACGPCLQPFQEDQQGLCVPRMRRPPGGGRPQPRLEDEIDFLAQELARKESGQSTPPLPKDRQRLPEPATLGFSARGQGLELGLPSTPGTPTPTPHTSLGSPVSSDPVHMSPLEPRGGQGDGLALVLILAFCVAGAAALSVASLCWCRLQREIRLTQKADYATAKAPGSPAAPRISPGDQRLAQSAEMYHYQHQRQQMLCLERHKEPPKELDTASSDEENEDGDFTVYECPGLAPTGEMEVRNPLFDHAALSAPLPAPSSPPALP

[3] = target: T3, mouse CD99 expressed on 293T cells (mouse, UniProt Q8VCN6 29-175, sialylated O-glycans at Thr-45 and Thr-50 (cited as relevant for PILRα recognition)); assay: as above
T3 construct: whole, on cells; also called mCD99; mCD99 transfectants
T3 sequence (looked up): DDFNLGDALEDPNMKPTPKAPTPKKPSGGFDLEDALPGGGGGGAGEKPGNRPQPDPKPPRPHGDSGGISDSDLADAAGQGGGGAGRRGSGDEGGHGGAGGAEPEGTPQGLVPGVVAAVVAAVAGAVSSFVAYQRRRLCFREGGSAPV

MAG expressed on cells = target: T4, MAG expressed on cells (human, UniProt P20916 20-626); assay: flow cytometry, transfected 293T cells, 2 µg/ml
T4 construct: Clone of the Origene human cDNA library; also called Myelin associated glycoprotein; SIGLEC4A
T4 sequence: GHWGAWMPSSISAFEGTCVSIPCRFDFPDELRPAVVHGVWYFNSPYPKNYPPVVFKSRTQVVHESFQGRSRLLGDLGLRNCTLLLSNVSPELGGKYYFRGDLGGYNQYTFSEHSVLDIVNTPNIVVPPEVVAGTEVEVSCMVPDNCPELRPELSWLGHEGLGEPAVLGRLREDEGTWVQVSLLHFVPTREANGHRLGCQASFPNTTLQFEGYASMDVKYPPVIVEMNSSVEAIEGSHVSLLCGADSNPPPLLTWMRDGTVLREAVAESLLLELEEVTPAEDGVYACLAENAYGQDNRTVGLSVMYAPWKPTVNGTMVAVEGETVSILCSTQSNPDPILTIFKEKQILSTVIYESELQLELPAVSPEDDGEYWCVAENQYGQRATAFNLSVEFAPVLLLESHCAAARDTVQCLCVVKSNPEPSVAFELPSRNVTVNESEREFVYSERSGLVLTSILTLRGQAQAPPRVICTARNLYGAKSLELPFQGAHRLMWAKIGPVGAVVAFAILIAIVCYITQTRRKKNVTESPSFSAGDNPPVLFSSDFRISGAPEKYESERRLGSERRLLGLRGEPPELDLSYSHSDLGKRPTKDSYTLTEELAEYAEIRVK

BR3 expressed on cells [4] = target: T5, BR3 expressed on cells (human, UniProt Q96RJ3 1-184); assay: flow cytometry, transfected 293T cells, 2 µg/ml
T5 construct: Clone of the Origene human cDNA library
T5 sequence: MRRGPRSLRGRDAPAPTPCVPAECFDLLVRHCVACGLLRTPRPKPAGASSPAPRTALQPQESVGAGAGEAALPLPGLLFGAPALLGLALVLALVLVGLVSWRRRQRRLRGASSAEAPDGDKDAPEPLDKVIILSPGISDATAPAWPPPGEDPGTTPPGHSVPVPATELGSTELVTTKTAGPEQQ

[5] = target: T6, IL-2Ra expressed on cells (human, UniProt P01589 22-272); assay: flow cytometry, transfected 293T cells, 2 µg/ml
T6 construct: Clone of the Origene human cDNA library; also called Interleukin 2 receptor alpha
T6 sequence: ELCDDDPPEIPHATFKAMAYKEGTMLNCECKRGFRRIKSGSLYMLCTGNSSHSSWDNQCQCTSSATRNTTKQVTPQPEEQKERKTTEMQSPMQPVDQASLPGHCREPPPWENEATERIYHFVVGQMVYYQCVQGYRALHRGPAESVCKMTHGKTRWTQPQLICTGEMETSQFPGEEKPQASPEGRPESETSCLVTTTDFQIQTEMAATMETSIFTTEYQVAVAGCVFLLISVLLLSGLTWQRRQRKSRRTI

PSS8 expressed on cells [6] = target: T7, PSS8 expressed on cells (human, UniProt Q16651 30-343); assay: flow cytometry, transfected 293T cells, 2 µg/ml
T7 construct: Clone of the Origene human cDNA library; also called Protease serine 8; prostasin

BR3 expressed on cells [7] = target: T5, BR3 expressed on cells; assay: flow cytometry, transfected 293T cells
[8] = target: T6, IL-2Ra expressed on cells; assay: flow cytometry, transfected 293T cells
PSS8 expressed on cells [9] = target: T7, PSS8 expressed on cells; assay: flow cytometry, transfected 293T cells
[10] = target: T1, human COLEC12 expressed on cells; assay: flow cytometry, transfected 293T cells, ligand-expressing cells gated
[11] = target: T2, human NPDC1 expressed on cells; assay: as above
[12] = target: T8, HSV1 glycoprotein B expressed on 293T cells (herpes simplex virus type 1, UniProt P10211 31-904); assay: as above
T8 construct: whole, on cells; also called HSV-1 gB; HSV1 gB

[13] = target: T3, mouse CD99 expressed on 293T cells; assay: as above

T1 sequence (Q5KU26 whole entry S522P/G606S): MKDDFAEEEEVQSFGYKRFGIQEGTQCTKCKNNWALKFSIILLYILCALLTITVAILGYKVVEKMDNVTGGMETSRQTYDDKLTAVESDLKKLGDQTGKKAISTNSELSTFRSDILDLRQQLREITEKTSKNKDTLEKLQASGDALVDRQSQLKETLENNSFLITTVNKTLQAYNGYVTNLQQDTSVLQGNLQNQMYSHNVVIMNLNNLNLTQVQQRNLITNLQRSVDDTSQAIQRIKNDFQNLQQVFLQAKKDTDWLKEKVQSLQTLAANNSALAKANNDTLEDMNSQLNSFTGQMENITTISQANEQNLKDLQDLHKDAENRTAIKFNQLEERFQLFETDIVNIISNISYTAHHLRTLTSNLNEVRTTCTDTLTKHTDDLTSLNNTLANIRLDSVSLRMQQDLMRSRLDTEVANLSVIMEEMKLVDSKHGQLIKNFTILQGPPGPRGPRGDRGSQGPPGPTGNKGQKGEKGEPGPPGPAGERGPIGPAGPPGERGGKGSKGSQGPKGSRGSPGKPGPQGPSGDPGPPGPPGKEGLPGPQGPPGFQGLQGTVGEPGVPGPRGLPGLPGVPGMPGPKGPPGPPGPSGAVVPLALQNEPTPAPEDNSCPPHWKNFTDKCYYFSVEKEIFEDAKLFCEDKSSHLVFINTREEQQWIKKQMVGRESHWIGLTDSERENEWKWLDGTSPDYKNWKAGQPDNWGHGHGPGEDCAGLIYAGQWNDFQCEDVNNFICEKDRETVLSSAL
T7 sequence (Q16651 30-343 limits assumed): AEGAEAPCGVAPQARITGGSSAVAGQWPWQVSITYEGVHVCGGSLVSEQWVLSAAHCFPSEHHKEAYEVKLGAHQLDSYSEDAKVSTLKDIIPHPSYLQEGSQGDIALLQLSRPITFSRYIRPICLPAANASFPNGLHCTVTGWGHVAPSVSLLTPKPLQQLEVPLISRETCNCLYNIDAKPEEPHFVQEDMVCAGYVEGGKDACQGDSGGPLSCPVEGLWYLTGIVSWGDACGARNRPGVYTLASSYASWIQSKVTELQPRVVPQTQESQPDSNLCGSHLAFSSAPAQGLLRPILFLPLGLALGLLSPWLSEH

| Binder | % cells in lower right quadrant [1] [%] | % cells in lower right quadrant [2] [%] | % cells in lower right quadrant [3] [%] | % cells in lower right quadrant (MAG expressed on cells) [%] | % cells in lower right quadrant (BR3 expressed on cells [4]) [%] | % cells in lower right quadrant [5] [%] | % cells in lower right quadrant (PSS8 expressed on cells [6]) [%] | binding result (BR3 expressed on cells [7]) | binding result [8] | binding result (PSS8 expressed on cells [9]) | binding result [10] | binding result [11] | binding result [12] | binding result [13] |
| --- | --- | --- | --- | --- | --- | --- | --- | --- | --- | --- | --- | --- | --- | --- |
| B1 | 0.082 | 29.6 | 34 | 0.039 | 34.1 | 14.1 | 0.024 | – | – | – | – | – | – | – |
| B2 | – | – | – | – | – | – | – | no binding (tested: 50 µg/ml) | no binding (tested: 50 µg/ml) | no binding (tested: 50 µg/ml) | no binding | no binding | no binding | no binding |
